Patent US20110300138A1 (published 2011)
Read-outs that look alike come from different tables or passages of the source.

Experiments:
[1] = biological target: human TSH receptor (full length, wild type) expressed in CHO cells (human) (UniProt P16473); assay: cell-based or functional assay
[2] = biological target: human TSH receptor (full length, wild type) expressed in CHO cells (human) (UniProt P16473); assay: cell-based or functional assay; remark: listed apart in the source
[3] = biological target: human TSHR (wild type, full length) expressed in CHO cells (human) (UniProt P16473); assay: cell-based or functional assay
[4] = biological target: human TSHR (wild type, full length) expressed in CHO cells (human) (UniProt P16473); assay: cell-based or functional assay; remark: listed apart in the source
[5] = biological target: TSHR260-alkaline phosphatase (TSHR260-AP) (human) (UniProt P05187); assay: TSHR260-AP bridge ELISA, full length TSHR on wells; 1 µg/mL, diluted in HBD
[6] = biological target: TSHR260-alkaline phosphatase (TSHR260-AP) (human) (UniProt P05187); assay: TSHR260-AP bridge ELISA, full length TSHR on wells; 10 µg/mL, diluted in HBD
[7] = biological target: TSHR260-alkaline phosphatase (TSHR260-AP) (human) (UniProt P05187); assay: TSHR260-AP bridge ELISA, full length TSHR on wells; 0.1 µg/mL, diluted in HBD
[8] = biological target: TSHR260-alkaline phosphatase (TSHR260-AP) (human) (UniProt P05187); assay: TSHR260-AP bridge ELISA, full length TSHR on wells; 0.5 µg/mL, diluted in HBD
[9] = biological target: TSHR260-alkaline phosphatase (TSHR260-AP) (human) (UniProt P05187); assay: TSHR260-AP bridge ELISA, full length TSHR on wells; 250 µg/mL, diluted in HBD
[10] = biological target: TSHR260-alkaline phosphatase (TSHR260-AP) (human) (UniProt P05187); assay: TSHR260-AP bridge ELISA, full length TSHR on wells; 0.01 µg/mL, diluted in HBD
[11] = biological target: TSHR260-alkaline phosphatase (TSHR260-AP) (human) (UniProt P05187); assay: TSHR260-AP bridge ELISA, full length TSHR on wells; 10 µg/mL, diluted in assay buffer
[12] = biological target: TSHR260-alkaline phosphatase (TSHR260-AP) (human) (UniProt P05187); assay: TSHR260-AP bridge ELISA, full length TSHR on wells; 0.5 µg/mL, diluted in assay buffer
[13] = biological target: TSHR260-alkaline phosphatase (TSHR260-AP) (human) (UniProt P05187); assay: TSHR260-AP bridge ELISA, full length TSHR on wells; 250 µg/mL, diluted in assay buffer
[14] = biological target: TSHR260-alkaline phosphatase (TSHR260-AP) (human) (UniProt P05187); assay: TSHR260-AP bridge ELISA, full length TSHR on wells; 0.05 µg/mL, diluted in assay buffer
[15] = biological target: TSHR260-AP (human); assay: TSHR260-AP bridge ELISA (full length TSHR on wells, TSHR260-AP in solution); IgG 10 µg/mL diluted in HBD serum
[16] = biological target: TSHR260-AP (human); assay: TSHR260-AP bridge ELISA (full length TSHR on wells, TSHR260-AP in solution); IgG 0.1 µg/mL diluted in HBD serum
[17] = biological target: TSHR260-AP (human); assay: TSHR260-AP bridge ELISA (full length TSHR on wells, TSHR260-AP in solution); IgG 0.5 µg/mL diluted in HBD serum
[18] = biological target: TSHR260-AP (human); assay: TSHR260-AP bridge ELISA (full length TSHR on wells, TSHR260-AP in solution); IgG 100 µg/mL diluted in HBD serum
[19] = biological target: TSHR260-AP (human); assay: TSHR260-AP bridge ELISA (full length TSHR on wells, TSHR260-AP in solution); IgG 1 µg/mL diluted in assay buffer
[20] = biological target: TSHR260-AP (human); assay: TSHR260-AP bridge ELISA (full length TSHR on wells, TSHR260-AP in solution); IgG 0.005 µg/mL diluted in HBD serum
[21] = biological target: TSHR260-AP (human); assay: TSHR260-AP bridge ELISA (full length TSHR on wells, TSHR260-AP in solution); IgG 10 µg/mL diluted in assay buffer
[22] = biological target: TSHR260-AP (human); assay: TSHR260-AP bridge ELISA (full length TSHR on wells, TSHR260-AP in solution); IgG 250 µg/mL diluted in assay buffer
[23] = biological target: TSHR260-AP (human); assay: TSHR260-AP bridge ELISA (full length TSHR on wells, TSHR260-AP in solution); IgG 0.005 µg/mL diluted in assay buffer

B1: 5C9 IgG (antibody, from another filing, V domains shown)
VH: EVQLVESGGGLIQPGGSLRLSCAASGFTVSSNYMSWVRQAPGKGLEWVSVTYSGGSTSYADSVKGRFTISRDNSKNTLYLQMNSLRAEDTAVYYCARGGRYCSSISCYARSGCDYWGQGTLVTVSS
VL: AIQMTQSPSSLSASVGDRVTITCRASQSISNYLNWYQQKPGKAPKLLIYAASSLQSGVPSRFSGSGSGTDFTLTISSLQPEDFATYYCQQSYSSPSTTFGQGTKLEIK
% Inhibition; T10 serum + 100 µg/mL 5C9 IgG [1]: 98.4%
% Inhibition; T11 serum + 100 µg/mL 5C9 IgG [1]: 8.5%
% Inhibition; T12 serum + 100 µg/mL 5C9 IgG [1]: 96.3%
Cyclic AMP concentration; 100 µg/mL 5C9 IgG alone [1]: 0.9 pmol/mL
Cyclic AMP concentration; HBD + 100 µg/mL 5C9 IgG [1]: 1.1 pmol/mL
Cyclic AMP concentration; T10 serum + 100 µg/mL 5C9 IgG [1]: 0.9 pmol/mL
Cyclic AMP concentration; T11 serum + 100 µg/mL 5C9 IgG [1]: 37.5 pmol/mL
Cyclic AMP concentration; T12 serum + 100 µg/mL 5C9 IgG [1]: 1.6 pmol/mL
% Inhibition; T1 serum + 100 µg/mL 5C9 IgG [2]: 98.7%
% Inhibition; T2 serum + 100 µg/mL 5C9 IgG [2]: 98.2%
% Inhibition; T3 serum + 100 µg/mL 5C9 IgG [2]: 97.8%
Cyclic AMP concentration; 100 µg/mL 5C9 IgG alone [2]: 1 pmol/mL
Cyclic AMP concentration; HBD + 100 µg/mL 5C9 IgG [2]: 0.9 pmol/mL
Cyclic AMP concentration; T1 serum + 100 µg/mL 5C9 IgG [2]: 1.3 pmol/mL
Cyclic AMP concentration; T2 serum + 100 µg/mL 5C9 IgG [2]: 1.1 pmol/mL
Cyclic AMP concentration; T3 serum + 100 µg/mL 5C9 IgG [2]: 1.4 pmol/mL
% Inhibition of T5 serum stimulation; 0.01 µg/mL 5C9 IgG [3]: 17.2%
% Inhibition of T5 serum stimulation; 0.1 µg/mL 5C9 IgG [3]: 91.2%
% Inhibition of T5 serum stimulation; 1 µg/mL 5C9 IgG [3]: 97.8%
% Inhibition of T5 serum stimulation; 10 µg/mL 5C9 IgG [3]: 98.9%
% Inhibition of T5 serum stimulation; 100 µg/mL 5C9 IgG [3]: 98.9%
Cyclic AMP concentration; 0.01 µg/mL 5C9 IgG + T5 [3]: 52.9 pmol/mL
Cyclic AMP concentration; 0.1 µg/mL 5C9 IgG + T5 [3]: 5.6 pmol/mL
Cyclic AMP concentration; 1 µg/mL 5C9 IgG + T5 [3]: 1.4 pmol/mL
Cyclic AMP concentration; 10 µg/mL 5C9 IgG + T5 [3]: 0.7 pmol/mL
Cyclic AMP concentration; 100 µg/mL 5C9 IgG + T5 [3]: 0.7 pmol/mL
Cyclic AMP concentration; 100 µg/mL 5C9 IgG alone [3]: 1.1 pmol/mL
% Inhibition of T8 serum stimulation; 0.01 µg/mL 5C9 IgG [4]: 0%
% Inhibition of T8 serum stimulation; 0.1 µg/mL 5C9 IgG [4]: 91%
% Inhibition of T8 serum stimulation; 1 µg/mL 5C9 IgG [4]: 96%
% Inhibition of T8 serum stimulation; 10 µg/mL 5C9 IgG [4]: 97%
% Inhibition of T8 serum stimulation; 100 µg/mL 5C9 IgG [4]: 97%
Cyclic AMP concentration; 0.01 µg/mL 5C9 IgG + T8 [4]: 53.7 pmol/mL
Cyclic AMP concentration; 0.1 µg/mL 5C9 IgG + T8 [4]: 4.6 pmol/mL
Cyclic AMP concentration; 1 µg/mL 5C9 IgG + T8 [4]: 2.2 pmol/mL
Cyclic AMP concentration; 10 µg/mL 5C9 IgG + T8 [4]: 1.7 pmol/mL
Cyclic AMP concentration; 100 µg/mL 5C9 IgG + T8 [4]: 1.7 pmol/mL
Cyclic AMP concentration; 100 µg/mL 5C9 IgG alone [4]: 1.2 pmol/mL
Mean absorbance at 405 nm (absorbance at 405 nm) [5]: 0.045
Mean absorbance at 405 nm (absorbance at 405 nm) [6]: 0.004
Mean absorbance at 405 nm (absorbance at 405 nm) [7]: -0.005
Mean absorbance at 405 nm (absorbance at 405 nm) [8]: 0.016
Mean absorbance at 405 nm (absorbance at 405 nm) [9]: 0.058
Mean absorbance at 405 nm (absorbance at 405 nm) [10]: 0.017
Mean absorbance at 405 nm (absorbance at 405 nm) [11]: 0.099
Mean absorbance at 405 nm (absorbance at 405 nm) [12]: -0.005
Mean absorbance at 405 nm (absorbance at 405 nm) [13]: 1.12
Mean absorbance at 405 nm (absorbance at 405 nm) [14]: -0.008
Mean absorbance at 405 nm (absorbance at 405 nm) [15]: 0.004
Mean absorbance at 405 nm (absorbance at 405 nm) [16]: -0.005
Mean absorbance at 405 nm (absorbance at 405 nm) [17]: 0.016
Mean absorbance at 405 nm (absorbance at 405 nm) [18]: 0.027
Mean absorbance at 405 nm (absorbance at 405 nm) [19]: 0.011
Mean absorbance at 405 nm (absorbance at 405 nm) [20]: 0.02
Mean absorbance at 405 nm (absorbance at 405 nm) [21]: 0.099
Mean absorbance at 405 nm (absorbance at 405 nm) [22]: 1.12
Mean absorbance at 405 nm (absorbance at 405 nm) [23]: -0.009
